± gives the standard deviation of the averaged measurements.
Each sequence was assayed on Saccharomyces cerevisiae (assay: protein stability index of tFT-peptide fusion (C-terminal peptide) (PSI (0-1 scale)); higher = more stable (slower turnover)). Conditions: genetic background: wild type; temperature: 30 C.
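Further: PSI is a weighted mean of sequencing reads over stability bins, variants kept only with over 10 reads, mCherry proximal and sfGFP distal, peptide attached via GGGS linker.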

VAVRARRWASGP and VCARSVLFFWAA are within error of each other in protein stability index: 0.727 ± 0.055 for the first, 0.782 ± 0.25 for the second.

VCDFVLALRGLT and VCGCWWWCGVGW are within error of each other in protein stability index: 0.649 ± 0.029 for the first, 0.657 ± 0.043 for the second.

Going from VCGGCCEVEVGM to VCGGVGGGDNGG, the protein stability index rises from 0.622 ± 0.041 to 0.739 ± 0.036.

First: VCGLLGGVWLCL
Second: VCGREVKCGEGY
The protein stability index of the first is lower: 0.611 ± 0.021 for the first, 0.691 ± 0.027 for the second.

Going from VCGSILSVFRAY to VCGSIRVIAWGD, the protein stability index rises from 0.571 ± 0.0016 to 0.671 ± 0.057.

VCLPPPPLPPSC and VCPPPIGYHSYQ are within error of each other in protein stability index: 0.692 ± 0.041 for the first, 0.6674 ± 0.0019 for the second.

Going from VCRGWGVCGEWG to VCRPLYNSMFGR, the protein stability index rises from 0.6243 ± 0.0025 to 0.691 ± 0.023.

VCSRGVCGFLSG and VCTVSGFGVLGA are within error of each other in protein stability index: 0.67 ± 0.01 for the first, 0.751 ± 0.15 for the second.

Compared with VCVAVVGGGCRG, VCVSLNVGGVRF is higher in protein stability index: 0.5726 ± 0.0032 for the first, 0.658 ± 0.024 for the second.

VDIKQDTTNLRL and VDLCRPLSRPTV are within error of each other in protein stability index: 0.718 ± 0.0086 for the first, 0.703 ± 0.016 for the second.

VDLGAGVCSAVC and VDLYVRRVGVGG are within error of each other in protein stability index: 0.6195 ± 0.0056 for the first, 0.631 ± 0.037 for the second.

VDRRCTGLISSS and VEAWGVGVGSTV are within error of each other in protein stability index: 0.668 ± 0.05 for the first, 0.676 ± 0.021 for the second.

VECPFGTAGCHI and VEESNQILERQS are within error of each other in protein stability index: 0.659 ± 0.057 for the first, 0.671 ± 0.0093 for the second.

VEFGAPGFVEEW and VEFGGICSYVGC are within error of each other in protein stability index: 0.734 ± 0.021 for the first, 0.724 ± 0.036 for the second.

VEFVSKSLGVGW and VEPTSDNGVVRR are within error of each other in protein stability index: 0.6756 ± 0.0053 for the first, 0.662 ± 0.025 for the second.

VESGVREEKCMS and VESSSMKGLLCD are within error of each other in protein stability index: 0.708 ± 0.11 for the first, 0.66 ± 0.095 for the second.

VFACVHPLASLT and VFCSLAWFGLLL are within error of each other in protein stability index: 0.681 ± 0.048 for the first, 0.598 ± 0.054 for the second.

VFFLHGLVIYED and VFGAAGVRFFVG are within error of each other in protein stability index: 0.563 ± 0.069 for the first, 0.58 ± 0.022 for the second.

First: VFGRSFFRLFRG
Second: VFGSYFFIPFFL
The protein stability index of the first is higher: 0.6444 ± 0.0031 for the first, 0.498 ± 0.016 for the second.

Compared with VFKLRLPAVPHT, VFLSCPCLFFWV is lower in protein stability index: 0.734 ± 0.09 for the first, 0.56 ± 0.022 for the second.

First: VFLVLFDRLLPL
Second: VFMVLLLGFRRF
The protein stability index of the first is higher: 0.669 ± 0.0073 for the first, 0.549 ± 0.011 for the second.

VFRCSGLFFRDG and VFRHIGVIYNNF are within error of each other in protein stability index: 0.6621 ± 0.0033 for the first, 0.65 ± 0.013 for the second.

VFSALAYVVFKG and VFSLQCVSGIFV are within error of each other in protein stability index: 0.598 ± 0.032 for the first, 0.568 ± 0.076 for the second.

First: VFTFGAGFGARL
Second: VFVPARGAFHGL
The protein stability index of the first is higher: 0.801 ± 0.022 for the first, 0.69 ± 0.018 for the second.

Going from VGACGEYGGFFR to VGACWGCGVCPL, the protein stability index rises from 0.67 ± 0.035 to 0.755 ± 0.049.

Going from VGCGGGEFSLFG to VGCGGRGGRRGW, the protein stability index falls from 0.727 ± 0.034 to 0.599 ± 0.019.

VGCGVGGIGVLV and VGCLNCWLPFLG are within error of each other in protein stability index: 0.712 ± 0.1 for the first, 0.666 ± 0.048 for the second.

VGCRGTIAIGGR and VGEGGGEVMGEA are within error of each other in protein stability index: 0.683 ± 0.0071 for the first, 0.712 ± 0.085 for the second.

VGFGARGVPGGG and VGFGVRTGETVV are within error of each other in protein stability index: 0.681 ± 0.019 for the first, 0.685 ± 0.048 for the second.

First: VGFSAFSDSFFV
Second: VGFVAWFRNVCR
The protein stability index of the first is higher: 0.7224 ± 0.0046 for the first, 0.653 ± 0.044 for the second.

Compared with VGFYRADSLLIF, VGGAAVGAGGGV is higher in protein stability index: 0.5763 ± 0.0049 for the first, 0.691 ± 0.054 for the second.

Compared with VGGAWRMGRGGG, VGGEGSAGLQCR is higher in protein stability index: 0.658 ± 0.018 for the first, 0.6956 ± 0.0037 for the second.

VGGFCSWVVAWF and VGGFRVLCVGLG are within error of each other in protein stability index: 0.717 ± 0.1 for the first, 0.613 ± 0.04 for the second.

VGGGGEWCLVRL and VGGGGRARRRGS are within error of each other in protein stability index: 0.685 ± 0.013 for the first, 0.701 ± 0.013 for the second.

VGGVGGLWGGAV and VGGVRGAGCVRG are within error of each other in protein stability index: 0.69 ± 0.064 for the first, 0.705 ± 0.024 for the second.

VGGVWGLGVRPR and VGGWGGVSLGGR are within error of each other in protein stability index: 0.693 ± 0.029 for the first, 0.721 ± 0.1 for the second.

First: VGIFQLCCALGG
Second: VGILTSVQKHSG
The protein stability index of the first is lower: 0.47 ± 0.085 for the first, 0.723 ± 0.16 for the second.

VGLGGGVRLGRL and VGLGRPAAAWRR are within error of each other in protein stability index: 0.786 ± 0.09 for the first, 0.71 ± 0.00097 for the second.

VGLLCVGAGFWG and VGLLGCGMNGGR are within error of each other in protein stability index: 0.652 ± 0.014 for the first, 0.701 ± 0.068 for the second.

Going from VGLLLAGKIVTY to VGLVVVRTMGPC, the protein stability index rises from 0.604 ± 0.033 to 0.6463 ± 0.00079.

VGNGGVWSVGRG and VGRAPDFLYGVW are within error of each other in protein stability index: 0.685 ± 0.038 for the first, 0.691 ± 0.044 for the second.

VGREVSYGRGGD and VGRGCVLGVWEG are within error of each other in protein stability index: 0.655 ± 0.031 for the first, 0.715 ± 0.035 for the second.

First: VGRGPSAPVSCV
Second: VGRTNHSRVFRT
The protein stability index of the first is higher: 0.726 ± 0.061 for the first, 0.627 ± 0.035 for the second.

VGRWGGVSLGGR and VGSLGVGTFRRD are within error of each other in protein stability index: 0.715 ± 0.09 for the first, 0.692 ± 0.011 for the second.

First: VGSLRAGYFLRL
Second: VGSSLRGWSSRT
The protein stability index of the first is lower: 0.637 ± 0.043 for the first, 0.804 ± 0.045 for the second.

First: VGVAGGRGEEEL
Second: VGVDCGVLWCLF
The protein stability index of the first is higher: 0.735 ± 0.019 for the first, 0.637 ± 0.015 for the second.

VGVFDGAVFSWC and VGVGGGRWCGRG are within error of each other in protein stability index: 0.726 ± 0.12 for the first, 0.69 ± 0.059 for the second.

VGVGGVGGFFGC and VGVTLSSFSRLP are within error of each other in protein stability index: 0.79 ± 0.037 for the first, 0.693 ± 0.085 for the second.

First: VGVVRAGWGGAV
Second: VGVVVGLVRLLG
The protein stability index of the first is higher: 0.65 ± 0.059 for the first, 0.537 ± 0.039 for the second.

VGVWTGWDVDCH and VGWGGGESLGWV are within error of each other in protein stability index: 0.742 ± 0.076 for the first, 0.694 ± 0.13 for the second.

VGYWGMGFWFSG and VHCNLKLDASNF are within error of each other in protein stability index: 0.65 ± 0.03 for the first, 0.719 ± 0.058 for the second.

VHESARAAGSDW and VHGAQICCIPWY are within error of each other in protein stability index: 0.647 ± 0.062 for the first, 0.699 ± 0.063 for the second.

VHGYVRLIWPTI and VHHFCSPPLPPP are within error of each other in protein stability index: 0.696 ± 0.053 for the first, 0.732 ± 0.0095 for the second.

VHHTPFFSAPHV and VHSPLVHILSCS are within error of each other in protein stability index: 0.647 ± 0.09 for the first, 0.582 ± 0.012 for the second.

VHTCVSYTNCMD and VICRGGHVLLES are within error of each other in protein stability index: 0.703 ± 0.026 for the first, 0.72 ± 0.098 for the second.

Going from VIDHALWCYVGG to VIFGCVLSQLDT, the protein stability index rises from 0.605 ± 0.0087 to 0.705 ± 0.023.

First: VIILRWCRVDGF
Second: VIVLVQDVALQL
The protein stability index of the first is lower: 0.565 ± 0.031 for the first, 0.7 ± 0.065 for the second.

VKGCKCGRIASY and VKPIFTEYGRYK are within error of each other in protein stability index: 0.669 ± 0.063 for the first, 0.626 ± 0.002 for the second.

VKQGCISSNCKL and VKRPGVGRSSTA are within error of each other in protein stability index: 0.762 ± 0.16 for the first, 0.731 ± 0.051 for the second.

Compared with VKTNPEGDGKQE, VKVWRTILRLLD is lower in protein stability index: 0.671 ± 0.021 for the first, 0.535 ± 0.0097 for the second.

First: VLACVAQAACCR
Second: VLAGTGGCASVW
The protein stability index of the first is lower: 0.556 ± 0.054 for the first, 0.739 ± 0.022 for the second.

Going from VLAGVVGQARWW to VLALLPLFFYFH, the protein stability index falls from 0.731 ± 0.015 to 0.5041 ± 0.0041.

VLFCFAHSASFL and VLGCWEAPFVRC are within error of each other in protein stability index: 0.536 ± 0.066 for the first, 0.62 ± 0.1 for the second.

VLGGVWAWWVGF and VLGLLFLLCVFM are within error of each other in protein stability index: 0.663 ± 0.022 for the first, 0.6436 ± 0.0038 for the second.

VLGVTVRFRGIS and VLLRSTRRPLPC are within error of each other in protein stability index: 0.642 ± 0.057 for the first, 0.657 ± 0.036 for the second.

VLMVIPRAQVLL and VLPPTPLTPVLP are within error of each other in protein stability index: 0.697 ± 0.085 for the first, 0.676 ± 0.055 for the second.

First: VLRARQGVREPP
Second: VLRGSFPWLSPV
The protein stability index of the first is lower: 0.526 ± 0.01 for the first, 0.7084 ± 0.0048 for the second.

VLSGFICTILIP and VLSLLVLLLSLP are within error of each other in protein stability index: 0.596 ± 0.038 for the first, 0.614 ± 0.017 for the second.

VLSSARKEVIIG and VLTGFTGSAIIG are within error of each other in protein stability index: 0.643 ± 0.03 for the first, 0.682 ± 0.03 for the second.

VLTVVRVGVGKQ and VLVLVARPLWRI are within error of each other in protein stability index: 0.676 ± 0.051 for the first, 0.646 ± 0.0094 for the second.

Going from VLVRRVFRRRSR to VLVRYSAGTGGT, the protein stability index falls from 0.786 ± 0.11 to 0.605 ± 0.013.

Compared with VMKILQVGDVYN, VMLSYCHNLTKI is lower in protein stability index: 0.752 ± 0.021 for the first, 0.646 ± 0.074 for the second.

Compared with VMLWAGLFGSSV, VMTRVIYRGVGR is higher in protein stability index: 0.634 ± 0.018 for the first, 0.6643 ± 0.00051 for the second.

Compared with VNKRRCIGERDG, VNMMYEIWPLGN is lower in protein stability index: 0.6949 ± 0.0029 for the first, 0.624 ± 0.038 for the second.

VNRYSKETDAVF and VNYRVWRKRGGR are within error of each other in protein stability index: 0.6719 ± 0.0043 for the first, 0.644 ± 0.057 for the second.

First: VPEMFSSGIKGG
Second: VPLPLHLPPPLP
The protein stability index of the first is lower: 0.653 ± 0.072 for the first, 0.863 ± 0.12 for the second.

Going from VPMVFSIYFGVS to VPPPLASPPVTP, the protein stability index rises from 0.563 ± 0.012 to 0.698 ± 0.055.

VPPPVCAVPPPL and VPPSKQRSRIKD are within error of each other in protein stability index: 0.684 ± 0.036 for the first, 0.675 ± 0.028 for the second.

Compared with VPRGPRFHIILS, VPRLPPSPPPLP is higher in protein stability index: 0.594 ± 0.035 for the first, 0.779 ± 0.076 for the second.

First: VPSCWVSFPPSP
Second: VPSPPCPPHLPI
The protein stability index of the first is higher: 0.732 ± 0.04 for the first, 0.655 ± 0.012 for the second.
